Laboratory results published in patent US20230416371A1 (Chugai, published 2023).

How the values were obtained:
[1] = molecular target: T1, human FcγRIIa H (allotype H131) extracellular domain (human, UniProt P12318 34-217); assay: SPR Biacore 8K+; KD for FcγRIIb divided by KD for this FcγR
T1 construct: extracellular domain; also called hFcγRIIaH
T1 sequence (looked up): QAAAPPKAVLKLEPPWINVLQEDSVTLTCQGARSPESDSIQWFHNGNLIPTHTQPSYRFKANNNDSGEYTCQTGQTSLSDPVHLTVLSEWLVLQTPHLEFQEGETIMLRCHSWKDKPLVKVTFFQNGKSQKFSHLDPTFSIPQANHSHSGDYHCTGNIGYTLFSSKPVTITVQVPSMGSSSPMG
Procedure: (§1) The extracellular domains of FcγRs were produced by the method described in WO2014104165. The interaction between the produced antibodies and human FcγRs was analyzed using Biacore 8K+by the method below. For the running buffer, 50 mM Na-Phosphate, 150 mM NaCl, and 0.05% Tween20 (pH 7.4) was used, and measurement was performed at 25° C. The sensor chip used was a Series S SA chip (GE Healthcare) onto which CaptureSelect Human Fab-kappa Kinetics Biotin Conjugate (Thermo Fisher Scientific) was immobilized. An antibody of interest was captured onto this chip, and each FcγR diluted with the running buffer was allowed to interact with it. The chip was regenerated using 10 mM Glycine-HCl (pH 1.5), and repeatedly used to capture antibodies and perform measurement. The dissociation constants KD (mol/L) of each antibody for FcγRs were calculated using Biacore Insight Evaluation Software, with a steady state affinity model for the dissociation constant for FcγRIIb and a 1:1 Langmuir binding model for the dissociation constants for the other FcγRs (Table 2).

[2] = molecular target: T1, human FcγRIIa H (allotype H131) …; assay: SPR Biacore 8K+, 25 C, antibody captured, FcγR as analyte, 1:1 Langmuir model
Procedure: as §1

[3] = molecular target: T2, human FcγRIIIa F (allotype F158) extracellular domain (human, UniProt P08637 17-208); assay: SPR Biacore 8K+; KD of G1d divided by KD of this antibody
T2 construct: extracellular domain; also called hFcγRIIIaF
T2 sequence (P08637 17-208): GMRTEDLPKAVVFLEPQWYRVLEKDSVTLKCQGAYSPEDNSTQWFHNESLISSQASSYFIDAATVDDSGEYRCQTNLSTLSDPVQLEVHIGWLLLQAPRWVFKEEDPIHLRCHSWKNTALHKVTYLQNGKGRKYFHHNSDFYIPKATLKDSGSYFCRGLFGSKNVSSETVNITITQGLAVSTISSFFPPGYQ
Procedure: as §1

[4] = molecular target: T2, human FcγRIIIa F (allotype F158) …; assay: SPR Biacore 8K+, 25 C, antibody captured, FcγR as analyte, 1:1 Langmuir model
Procedure: as §1

[5] = molecular target: T3, human FcγRIIIa V (allotype V158) extracellular domain (human, UniProt P08637 17-208); assay: SPR Biacore 8K+; KD of G1d divided by KD of this antibody
T3 construct: extracellular domain; also called hFcγRIIIaV
T3 sequence (P08637 17-208 F176V): as the sequence (P08637 17-208) above, with F160V counted along it
Procedure: as §1

[6] = molecular target: T4, human FcγRIIb extracellular domain (human, UniProt P31994 43-217); assay: SPR Biacore 8K+, 25 C, antibody captured, FcγR as analyte, steady state affinity model
T4 construct: extracellular domain; also called hFcγRIIb
T4 sequence (looked up): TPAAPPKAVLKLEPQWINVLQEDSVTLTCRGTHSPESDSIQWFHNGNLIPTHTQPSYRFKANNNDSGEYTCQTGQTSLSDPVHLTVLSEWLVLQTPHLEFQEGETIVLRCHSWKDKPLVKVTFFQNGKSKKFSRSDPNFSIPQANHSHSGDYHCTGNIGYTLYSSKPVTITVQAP
Procedure: as §1

B1: EGL-G1d (H240-G1d/L73-k0) (antibody, human IgG1, kappa)
heavy: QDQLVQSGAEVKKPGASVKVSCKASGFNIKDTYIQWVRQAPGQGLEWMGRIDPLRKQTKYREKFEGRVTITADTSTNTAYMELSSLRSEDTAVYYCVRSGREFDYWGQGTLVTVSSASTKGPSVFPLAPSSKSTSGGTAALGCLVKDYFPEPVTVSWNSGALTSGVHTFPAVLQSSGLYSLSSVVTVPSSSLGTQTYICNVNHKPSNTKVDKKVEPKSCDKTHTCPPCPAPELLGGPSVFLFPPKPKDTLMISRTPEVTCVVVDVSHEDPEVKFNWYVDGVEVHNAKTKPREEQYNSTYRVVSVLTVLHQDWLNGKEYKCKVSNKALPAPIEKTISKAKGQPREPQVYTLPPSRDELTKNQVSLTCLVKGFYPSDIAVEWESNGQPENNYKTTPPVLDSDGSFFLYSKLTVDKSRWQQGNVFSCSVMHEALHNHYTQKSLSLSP
light: DIQMTQSPSSLSASVGDRVTITCRASQDIHKYIAWYQQKPGQAPRLLIQYTSTLQPGVPSRFSGSGSGTDYTFTISSLQPEDIATYYCLQYEQLRTFGGGTKVEIKRTVAAPSVFIFPPSDEQLKSGTASVVCLLNNFYPREAKVQWKVDNALQSGNSQESVTEQDSKDSTYSLSSTLTLSKADYEKHKVYACEVTHQGLSSPVTKSFNRGEC
notes: Anti-human Epiregulin antibody with human IgG1 constant region G1d (C-terminal Lys and Gly deleted); parent of all Fc variants; also called H240-Gld/L73-k0; anti-hEREG control antibody
- A/I ratio (KD for FcγRIIb divided by KD for each FcγR) [1]: 6.9

B2: EGL-GASDALIE (H240-GASDALIE/L73-k0) (antibody, human IgG1, kappa)
heavy: QDQLVQSGAEVKKPGASVKVSCKASGFNIKDTYIQWVRQAPGQGLEWMGRIDPLRKQTKYREKFEGRVTITADTSTNTAYMELSSLRSEDTAVYYCVRSGREFDYWGQGTLVTVSSASTKGPSVFPLAPSSKSTSGGTAALGCLVKDYFPEPVTVSWNSGALTSGVHTFPAVLQSSGLYSLSSVVTVPSSSLGTQTYICNVNHKPSNTKVDKKVEPKSCDKTHTCPPCPAPELLAGPDVFLFPPKPKDTLMISRTPEVTCVVVDVSHEDPEVKFNWYVDGVEVHNAKTKPREEQYNSTYRVVSVLTVLHQDWLNGKEYKCKVSNKALPLPEEKTISKAKGQPREPQVYTLPPSRDELTKNQVSLTCLVKGFYPSDIAVEWESNGQPENNYKTTPPVLDSDGSFFLYSKLTVDKSRWQQGNVFSCSVMHEALHNHYTQKSLSLSP
light: DIQMTQSPSSLSASVGDRVTITCRASQDIHKYIAWYQQKPGQAPRLLIQYTSTLQPGVPSRFSGSGSGTDYTFTISSLQPEDIATYYCLQYEQLRTFGGGTKVEIKRTVAAPSVFIFPPSDEQLKSGTASVVCLLNNFYPREAKVQWKVDNALQSGNSQESVTEQDSKDSTYSLSSTLTLSKADYEKHKVYACEVTHQGLSSPVTKSFNRGEC
notes: Anti-human Epiregulin IgG1 with symmetric G236A/S239D/A330L/I332E
- Kd [2]: 152 nM

B3: EGL-ART10 (H240-Kn494/L73-k0//H240-HI514/L73-k0) (antibody, human IgG1, kappa)
heavy 1: QDQLVQSGAEVKKPGASVKVSCKASGFNIKDTYIQWVRQAPGQGLEWMGRIDPLRKQTKYREKFEGRVTITADTSTNTAYMELSSLRSEDTAVYYCVRSGREFDYWGQGTLVTVSSASTKGPSVFPLAPSSKSTSGGTAALGCLVKDYFPEPVTVSWNSGALTSGVHTFPAVLQSSGLYSLSSVVTVPSSSLGTQTYICNVNHKPSNTKVDKKVEPKSCDKTHTCPPCPAPEFQWGPMVFLFPPKPKDVLMISRTPEVTCVVVDVSDEEPEVKFNWYVDGVEVHNAKTKPREEQYNATYRVVSVLPVLHQDWLNGKEYKCKVSNKALPAPEEKTISKAKGQPREPQVCTLPPSRDELTKNQVSLWCLVKGFYPSDIAVEWESNGQPENNYKTTPPVLDSDGSFFLYSKLTVDKSRWQQGNVFSCSVMHEALHNHYTQKSLSLSP
heavy 2: QDQLVQSGAEVKKPGASVKVSCKASGFNIKDTYIQWVRQAPGQGLEWMGRIDPLRKQTKYREKFEGRVTITADTSTNTAYMELSSLRSEDTAVYYCVRSGREFDYWGQGTLVTVSSASTKGPSVFPLAPSSKSTSGGTAALGCLVKDYFPEPVTVSWNSGALTSGVHTFPAVLQSSGLYSLSSVVTVPSSSLGTQTYICNVNHKPSNTKVDKKVEPKSCDKTHTCPPCPAPELLGGPSVFLFPPKPKDVLMISRTPEVTCVVVDVSHEEPEVKFNWYVDGVEVHNAKTKPREEQYNATYRVVSVLPVLHQDWLNGKEYKCKVSNDALPAPEEETISKAKGQPREPQVYTLPPSRCELTKNQVSLSCAVKGFYPSDIAVEWESNGQPENNYKTTPPVLDSDGSFFLVSKLTVDKSRWQQGNVFSCSVMHEALHNHYTQKSLSLSP
light: DIQMTQSPSSLSASVGDRVTITCRASQDIHKYIAWYQQKPGQAPRLLIQYTSTLQPGVPSRFSGSGSGTDYTFTISSLQPEDIATYYCLQYEQLRTFGGGTKVEIKRTVAAPSVFIFPPSDEQLKSGTASVVCLLNNFYPREAKVQWKVDNALQSGNSQESVTEQDSKDSTYSLSSTLTLSKADYEKHKVYACEVTHQGLSSPVTKSFNRGEC
notes: Anti-human Epiregulin IgG1 with heterodimeric (knobs-into-holes) Fc variant
- Relative value to KD between G1d and hFcγRs [3]: 1270 times

B4: EGL-SDALIE (H240-Kn032/L73-k0//H240-H1032/L73-k0) (antibody, human IgG1, kappa)
heavy 1: QDQLVQSGAEVKKPGASVKVSCKASGFNIKDTYIQWVRQAPGQGLEWMGRIDPLRKQTKYREKFEGRVTITADTSTNTAYMELSSLRSEDTAVYYCVRSGREFDYWGQGTLVTVSSASTKGPSVFPLAPSSKSTSGGTAALGCLVKDYFPEPVTVSWNSGALTSGVHTFPAVLQSSGLYSLSSVVTVPSSSLGTQTYICNVNHKPSNTKVDKKVEPKSCDKTHTCPPCPAPELLGGPDVFLFPPKPKDTLMISRTPEVTCVVVDVSHEDPEVKFNWYVDGVEVHNAKTKPREEQYNSTYRVVSVLTVLHQDWLNGKEYKCKVSNKALPLPEEKTISKAKGQPREPQVCTLPPSRDELTKNQVSLWCLVKGFYPSDIAVEWESNGQPENNYKTTPPVLDSDGSFFLYSKLTVDKSRWQQGNVFSCSVMHEALHNHYTQKSLSLSP
heavy 2: QDQLVQSGAEVKKPGASVKVSCKASGFNIKDTYIQWVRQAPGQGLEWMGRIDPLRKQTKYREKFEGRVTITADTSTNTAYMELSSLRSEDTAVYYCVRSGREFDYWGQGTLVTVSSASTKGPSVFPLAPSSKSTSGGTAALGCLVKDYFPEPVTVSWNSGALTSGVHTFPAVLQSSGLYSLSSVVTVPSSSLGTQTYICNVNHKPSNTKVDKKVEPKSCDKTHTCPPCPAPELLGGPDVFLFPPKPKDTLMISRTPEVTCVVVDVSHEDPEVKFNWYVDGVEVHNAKTKPREEQYNSTYRVVSVLTVLHQDWLNGKEYKCKVSNKALPLPEEKTISKAKGQPREPQVYTLPPSRCELTKNQVSLSCAVKGFYPSDIAVEWESNGQPENNYKTTPPVLDSDGSFFLVSKLTVDKSRWQQGNVFSCSVMHEALHNHYTQKSLSLSP
light: DIQMTQSPSSLSASVGDRVTITCRASQDIHKYIAWYQQKPGQAPRLLIQYTSTLQPGVPSRFSGSGSGTDYTFTISSLQPEDIATYYCLQYEQLRTFGGGTKVEIKRTVAAPSVFIFPPSDEQLKSGTASVVCLLNNFYPREAKVQWKVDNALQSGNSQESVTEQDSKDSTYSLSSTLTLSKADYEKHKVYACEVTHQGLSSPVTKSFNRGEC
notes: Anti-human Epiregulin IgG1 with S239D/A330L/I332E in both CH2 domains and knobs-into-holes in CH3
- Kd [4]: 26.5 nM
- Relative value to KD between G1d and hFcγRs [5]: 36.6 times

B5: EGL-GASDIE (H240-Kn037/L73-k0//H240-H1036/L73-k0) (antibody, human IgG1, kappa)
heavy 1: QDQLVQSGAEVKKPGASVKVSCKASGFNIKDTYIQWVRQAPGQGLEWMGRIDPLRKQTKYREKFEGRVTITADTSTNTAYMELSSLRSEDTAVYYCVRSGREFDYWGQGTLVTVSSASTKGPSVFPLAPSSKSTSGGTAALGCLVKDYFPEPVTVSWNSGALTSGVHTFPAVLQSSGLYSLSSVVTVPSSSLGTQTYICNVNHKPSNTKVDKKVEPKSCDKTHTCPPCPAPELLAGPDVFLFPPKPKDTLMISRTPEVTCVVVDVSHEDPEVKFNWYVDGVEVHNAKTKPREEQYNSTYRVVSVLTVLHQDWLNGKEYKCKVSNKALPAPEEKTISKAKGQPREPQVCTLPPSRDELTKNQVSLWCLVKGFYPSDIAVEWESNGQPENNYKTTPPVLDSDGSFFLYSKLTVDKSRWQQGNVFSCSVMHEALHNHYTQKSLSLSP
heavy 2: QDQLVQSGAEVKKPGASVKVSCKASGFNIKDTYIQWVRQAPGQGLEWMGRIDPLRKQTKYREKFEGRVTITADTSTNTAYMELSSLRSEDTAVYYCVRSGREFDYWGQGTLVTVSSASTKGPSVFPLAPSSKSTSGGTAALGCLVKDYFPEPVTVSWNSGALTSGVHTFPAVLQSSGLYSLSSVVTVPSSSLGTQTYICNVNHKPSNTKVDKKVEPKSCDKTHTCPPCPAPELLAGPDVFLFPPKPKDTLMISRTPEVTCVVVDVSHEDPEVKFNWYVDGVEVHNAKTKPREEQYNSTYRVVSVLTVLHQDWLNGKEYKCKVSNKALPAPEEKTISKAKGQPREPQVYTLPPSRCELTKNQVSLSCAVKGFYPSDIAVEWESNGQPENNYKTTPPVLDSDGSFFLVSKLTVDKSRWQQGNVFSCSVMHEALHNHYTQKSLSLSP
light: DIQMTQSPSSLSASVGDRVTITCRASQDIHKYIAWYQQKPGQAPRLLIQYTSTLQPGVPSRFSGSGSGTDYTFTISSLQPEDIATYYCLQYEQLRTFGGGTKVEIKRTVAAPSVFIFPPSDEQLKSGTASVVCLLNNFYPREAKVQWKVDNALQSGNSQESVTEQDSKDSTYSLSSTLTLSKADYEKHKVYACEVTHQGLSSPVTKSFNRGEC
notes: Anti-human Epiregulin IgG1 with G236A/S239D/I332E in both CH2 domains and knobs-into-holes in CH3
- Kd [6]: 12.5 nM
